Assay results reported in doi:10.1101/2023.08.15.553295 (bioRxiv, 2023).
Ends that are not written are not given here.

B1: FITC-labeled CCT5 C-terminal degron peptide (peptide)
peptide: IRKPGESEE
modifications: also: FITC label, position not given here
B2: FITC-labeled MAGEA3 C-terminal degron peptide (peptide)
peptide: LHEWVLREGEE
modifications: also: FITC label, position not given here
B3: unlabeled MAGEA3 C-terminal degron peptide (peptide)
peptide: LHEWVLREGEE
B4: NanoLuc-MAGEA3 full length (natural protein)
chain: MPLEQRSQHCKPEEGLEARGEALGLVGAQAPATEEQEAASSSSTLVEVTLGEVPAAESPDPPQSPQGASSLPTTMNYPLWSQSYEDSSNQEEEGPSTFPDLESEFQAALSRKVAELVHFLLLKYRAREPVTKAEMLGSVVGNWQYFFPVIFSKASSSLQLVFGIELMEVDPIGHLYIFATCLGLSYDGLLGDNQIMPKAGLLIIVLAIIAREGDCAPEEKIWEELSVLEVFEGREDSILGDPKKLLTQHFVQENYLEYRQVPGSDPACYEFLWGPRALVETSYVKVLHHMVKISGGPHISYPPLHEWVLREGEE
B5: unlabeled CCT5 C-terminal degron peptide (peptide)
peptide: IRKPGESEE

Key:
DCAF12 (Δ1-78) [1] = target: T1, DCAF12 (Δ1-78) (human, UniProt Q5T6F0 79-453); assay: fluorescence polarisation
DCAF12 (Δ1-78) [2] = target: T1, DCAF12 (Δ1-78); assay: fluorescence polarisation; remark: listed apart in the source
[3] = target: biotinylated DCAF12 (Δ1-78) (human, UniProt Q5T6F0 79-453, biotin); assay: SPR
HaloTag-DCAF12 wild type = HaloTag-DCAF12 wild type (human, UniProt Q5T6F0 1-453); assay: FRET or BRET
Sequence of HaloTag-DCAF12 wild type (Q5T6F0 whole entry): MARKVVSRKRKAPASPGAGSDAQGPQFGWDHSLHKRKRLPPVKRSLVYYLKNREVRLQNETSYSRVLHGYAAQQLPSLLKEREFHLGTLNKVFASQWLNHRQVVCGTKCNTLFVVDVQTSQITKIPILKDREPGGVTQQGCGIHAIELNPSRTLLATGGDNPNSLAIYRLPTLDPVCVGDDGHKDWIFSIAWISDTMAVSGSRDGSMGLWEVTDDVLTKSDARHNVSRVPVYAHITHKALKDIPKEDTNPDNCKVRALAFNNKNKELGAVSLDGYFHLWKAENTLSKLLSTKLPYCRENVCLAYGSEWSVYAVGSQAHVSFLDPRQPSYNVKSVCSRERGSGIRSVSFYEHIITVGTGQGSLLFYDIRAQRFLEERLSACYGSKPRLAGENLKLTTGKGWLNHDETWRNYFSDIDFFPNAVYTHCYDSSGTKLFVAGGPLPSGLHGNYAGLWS

T1 sequence (Q5T6F0 79-453, stated change not applied): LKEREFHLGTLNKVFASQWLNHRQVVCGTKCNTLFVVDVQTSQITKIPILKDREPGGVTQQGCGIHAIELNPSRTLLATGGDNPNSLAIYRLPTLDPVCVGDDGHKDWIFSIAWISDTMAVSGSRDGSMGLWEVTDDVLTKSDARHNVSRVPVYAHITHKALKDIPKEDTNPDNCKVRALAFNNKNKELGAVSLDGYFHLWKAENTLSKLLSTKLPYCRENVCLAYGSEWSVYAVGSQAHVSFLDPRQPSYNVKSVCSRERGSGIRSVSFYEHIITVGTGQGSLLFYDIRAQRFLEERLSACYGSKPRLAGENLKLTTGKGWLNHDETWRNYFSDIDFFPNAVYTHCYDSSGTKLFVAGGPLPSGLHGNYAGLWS
Sequence of biotinylated DCAF12 (Δ1-78) (Q5T6F0 79-453, stated change not applied): as above

Binder | Kd (DCAF12 (Δ1-78) [1]) | binding result (DCAF12 (Δ1-78) [2]) | binding result [3] | BRET signal, fold over the negative control (HaloTag-DCAF12 wild type)
B1 | < 370 nM | – | – | –
B2 | < 370 nM | – | – | –
B3 | – | binds | binds | –
B4 | – | – | – | 22 fold
B5 | – | binds | binds | –
